Columns and labels:
[1] = Ex vivo fluorescent signal in excised organs (IVIS Spectrum); design: species or system mice; details: 48 hours after 1 nmol i.v.
Method: Three weeks after A431 tumor implantation five mice were administered with 1 nmol of DA364 for a total administration volume of 0.2 mL (inj. rate 1 mL/min). In vivo OI acquisitions have been carried out 5 min, 15 min, 30 min, 1 h, 2 h, 3 h, 4 h, 6 h, 24 h and 48 hours after intravenous administration of the fluorescent probe using the IVIS Spectrum optical imaging system (Perkin Elmer). During OI experiments animals were kept under 3-4% Sevofluorane gas anaesthesia (O2 97.0-96.0%). During anaesthesia animals body temperature has been stabilized at about 37° C. using a heated bed.
Following in vivo OI experiments, 48 hours after probes injection, animals were sacrificed. Tumors, liver, kidneys, heart and spleen were excised for ex vivo fluorescent signal measure on the whole excised tumor or organ.
The fluorescent signal (expressed as Radiant Efficiency (RE): p/s/(μW/cm^2), where p is the photon count), was then measured on the excised ex vivo samples using the IVIS Spectrum optical imaging system (Perkin Elmer).

αvβ1 integrin = αvβ1 integrin (Homo sapiens, UniProt P05556+P06756); assay: In vitro competitive binding assay with biotinylated vitronectin; details: competitor biotinylated vitronectin 1 μg/mL, read-out: IC50 (vitronectine IC50)
Method: (§1) The affinity of DA364 for its specific targeted (the integrin αvβ3) and its crossreactivity for other integrins (e.g. αvβ1, αvβ5) was assessed by in vitro binding tests.
(§2) A 96-well microtiter plate (MediSorp, Nunc) was coated overnight at 4° C., with tested integrins (0.5 μg/mL, diluted in coating/washing buffer (20 mM Tris HCl pH 7.4; 150 mM NaCl; 1 mM MnCl2; 0.5 mM MgCl2; 2 mM CaCl2). After coating, the plate is rinsed with washing buffer and then incubated in blocking buffer (3% BSA in coating buffer) for 2 h at room temperature (RT) (24° C. in Thermomixer, under shaking). The plate was then rinsed in washing buffer and incubated at RT for 3 h with DA364 (concentration range from 5000 to 0.005 nM). DA364 solutions were prepared by serially diluting a stock solution of the NIR agent in 1% BSA in coating buffer in presence of biotinylated vitronectin (1 μg/mL, cod. HVN-U605, Molecular Innovations). The plate is then rinsed again and incubated with Streptavidin-HRP (cod.EG RPN 1051, GE Healthcare) (1:10000 in PBS) 1 h at RT, binding the biotinylated vitronectin. After additional washes in PBS, the plate was incubated with TMB solution (3,3′,5,5′-tetramethylbenzidine) (cod.T-0440, Sigma-Aldrich) for 5-10 min and the colorimetric reaction was then stopped by addition of 2 N sulfuric acid. The quantification of the IC50 for DA364 was performed by measuring the competitor (biotinylated vitronectin) by reading the absorbance at 450 nm. IC50 values were determined by least-square non-linear regression analysis.

αvβ5 integrin = αvβ5 integrin (Homo sapiens, UniProt P06756+P18084); assay: as above; details: competitor biotinylated vitronectin 1 μg/mL, read-out: IC50 (vitronectine IC50)
Method: as §1, §2

αvβ3 integrin = αvβ3 integrin (Homo sapiens, UniProt P05106+P06756); assay: as above; details: competitor biotinylated vitronectin 1 μg/mL, average value from a triplicate test, read-out: IC50 (vitronectine IC50)
Method: as §1, §2

[2] = Determination of the molar extinction coefficient (UV-VIS absorbance, linear regression); assay type: physicochemical; details: in PBS
Method: Two standard stock solutions containing the NIR agent in PBS at 1000 μM (sol I: 1.27 mg, 0.884 mL) and 1250 μM (sol II: 7.03 mg, 3.915 mL) were prepared. Diluted standard solutions were then prepared as reported in Table A by diluting the stock solutions in an appropriate volumetric flask using PBS. The absorbance of each standard diluted solution was measured without any further dilution.
The absorbance of each diluted standard solutions was measured and the molar extinction coefficient of DA364 was calculated from the slope of the linear regression reported in FIG. 1. The measured extinction coefficient in this condition was 208500 M^−1·cm^−1 (corresponding to 83% of the theoretical value reported for Cy5.5 dye: 250000 M^−1·cm^−1).

## CC[N+]1=C(/C=C/C=C/C=C2/N(CCCCCC(=O)NC[C@@H]3C[C@@H]4CC[C@H]5C(=O)N[C@@H](CCCNC(=N)N)C(=O)NCC(=O)N[C@@H](CC(=O)O)C(=O)N[C@H]3C(=O)N45)c3ccc4c(S(=O)(=O)O)cc(S(=O)(=O)O)cc4c3C2(C)C)C(C)(C)c2c1ccc1c(S(=O)(=O)[O-])cc(S(=O)(=O)O)cc21 [DA364]
[1]; excised heart ex vivo
  Fluorescence Signal (Radiant Efficiency): 4.61E+07 p/s/(μW/cm^2)
[1]; excised kidney ex vivo
  Fluorescence Signal (Radiant Efficiency): 3.55E+08 p/s/(μW/cm^2)
[1]; excised liver ex vivo
  Fluorescence Signal (Radiant Efficiency): 4.04E+08 p/s/(μW/cm^2)
[1]; excised spleen ex vivo
  Fluorescence Signal (Radiant Efficiency): 5.79E+07 p/s/(μW/cm^2)
αvβ1 integrin
  IC50: 28 nM
αvβ5 integrin
  IC50: 281 nM
αvβ3 integrin
  IC50: 3.76 nM
[2]
  extinction coefficient as percent of the theoretical value reported for Cy5.5 dye: 83%
  molar extinction coefficient: 208500 M⁻¹ cm⁻¹
